{
  "source": "patent US20210115424A1",
  "about": "(University of California, published 2021)",
  "key": {"[1]": {"target": "SpaA, soluble form (residues 30-500) lacking the N-terminal signal peptide and C-terminal membrane anchor domain"}, "[2]": {"target": "T1, SpaA derived sorting signal peptide KNAGFELPLTGGSGRI", "T1 chain": "KNAGFELPLTGGSGRI"}, "[3]": {"target": "sorting signal peptide (quantitative HPLC assay of Table 2)"}, "[4]": {"target": "T2, LPATG peptide KNAGFELPATGGSGRI", "T2 chain": "KNAGFELPATGGSGRI"}, "[5]": {"target": "^NSpaA, N-terminal domain of SpaA (residues 30-194) containing the pilin motif with K190"}, "[6]": {"target": "the molecule itself", "assay": "X-ray crystallography (homodimer in the crystal)"}, "[7]": {"target": "T3, pilin motif peptide DGWLQDVHVYPKHQALS", "T3 chain": "DGWLQDVHVYPKHQALS"}, "[8]": {"target": "^CSpaA, C-terminal domain of SpaA (residues 350-500) containing the LPLTG sorting signal"}},
  "data": [
    {"protein": "ΔSrtA^2M (SrtA^2M with the H1 helix, residues 37-54, removed) (protein) DSPAVRDSVLEAARQYNTSVVGFPILGPGLNRASKNSGPYLDYLQQLNPQRAERPVIASISIPTIDAHLPIYHGTDTATLEHGLGHLYGSALPVGGTGTHPVITGHSGLANATLFDNLEDVKEHDPIYITVQGETLKYEVDAINVVLPEDTKLLAPDPNKDQITLITCTPYAVNSHRLLVRAHRVDLDPNDPNLTQTGTKIWQ", "values": [
      {"measurement": "in vitro SpaA pilus polymerization (SDS-PAGE)", "setting": "[1]", "result": "the removal of the H1 helix in the SrtA^2M enzyme also abrogates pilus polymerization"},
      {"measurement": "Vmax of hydrolysis kinetics (HPLC-based assay, SpaApep cleavage)", "setting": "[2]", "result": 6.3, "unit": "µM/h"}
    ]},
    {"protein": "CdSrtA^Δ (CdSrtA active truncated variant with nine lid residues … deleted) (protein) NNARQARVAQSYENSYEVDSPAVRDSVLEAARQYNTSVVGFPSKNSGPYLDYLQQLNPQRAERPVIASISIPTIDAHLPIYHGTDTATLEHGLGHLYGSALPVGGTGTHPVITGHSGLANATLFDNLEDVKEHDPIYITVQGETLKYEVDAINVVLPEDTKLLAPDPNKDQITLITCTPYAVNSHRLLVRAHRVDLDPNDPNLTQTGTKIWQ", "values": [
      {"measurement": "Km (M) × 10^-4", "setting": "[3]", "result": 0.00016, "unit": "M"},
      {"measurement": "Vmax (s^-1) × 10^-9", "setting": "[3]", "result": "1e-08", "unit": "s⁻¹"},
      {"measurement": "kcat (s^-1) × 10^-5", "setting": "[3]", "result": 0.0004, "unit": "s⁻¹"},
      {"measurement": "kcat/kM", "setting": "[3]", "result": 2.5, "unit": "M⁻¹ s⁻¹"}
    ]},
    {"protein": "Staphylococcus aureus sortase A, wild type (protein) QAKPQIPKDKSKVAGYIEIPDADIKEPVYPGPATPEQLNRGVSFAEENESLDDQNISIAGHTFIDRPNYQFTNLKAAKKGSMVYFKVGNETRKYKMTSIRDVKPTDVGVLDEQKGKDKQLTLITCDDYNEKTGVWEKRKIFVATEVK", "values": [
      {"measurement": "hydrolysis of LPATG peptide (HPLC)", "setting": "[4]", "result": "SaSrtA robustly hydrolyzes the LPATG (SEQ ID NO. 5) peptide, as expected"}
    ]},
    {"protein": "Staphylococcus aureus sortase A improved variant 4M (P94S/D160N/D165A/K196T) (protein) QAKPQIPKDKSKVAGYIEIPDADIKEPVYPGPATSEQLNRGVSFAEENESLDDQNISIAGHTFIDRPNYQFTNLKAAKKGSMVYFKVGNETRKYKMTSIRNVKPTAVGVLDEQKGKDKQLTLITCDDYNEKTGVWETRKIFVATEVK", "values": [
      {"measurement": "hydrolysis of LPATG peptide (HPLC)", "setting": "[4]", "result": "almost entirely hydrolyzes the full length peptide after 24 hrs"}
    ]},
    {"protein": "SrtA^2M N228A variant (protein) NNARQARVAQSYENSYEVDSPAVRDSVLEAARQYNTSVVGFPILGPGLNRASKNSGPYLDYLQQLNPQRAERPVIASISIPTIDAHLPIYHGTDTATLEHGLGHLYGSALPVGGTGTHPVITGHSGLANATLFDNLEDVKEHDPIYITVQGETLKYEVDAINVVLPEDTKLLAPDPNKDQITLITCTPYAVASHRLLVRAHRVDLDPNDPNLTQTGTKIWQ", "values": [
      {"measurement": "hydrolysis of SpaApep (HPLC-based assay, SrtA^2M set as 100%)", "setting": "[2]", "result": "none of the mutants exhibited any significant defect in cleaving the LPXTG (SEQ ID NO. 5) motif"},
      {"measurement": "transpeptidation in vitro (ligation of ^NSpaA and ^CSpaA, SDS-PAGE)", "setting": "[5]", "result": "defective in transpeptidation in vitro, as no isopeptide linked SpaA-SpaA product was produced even after 48 hours"}
    ]},
    {"protein": "SrtA^2M S229A variant (protein) NNARQARVAQSYENSYEVDSPAVRDSVLEAARQYNTSVVGFPILGPGLNRASKNSGPYLDYLQQLNPQRAERPVIASISIPTIDAHLPIYHGTDTATLEHGLGHLYGSALPVGGTGTHPVITGHSGLANATLFDNLEDVKEHDPIYITVQGETLKYEVDAINVVLPEDTKLLAPDPNKDQITLITCTPYAVNAHRLLVRAHRVDLDPNDPNLTQTGTKIWQ", "values": [
      {"measurement": "hydrolysis of SpaApep (HPLC-based assay, SrtA^2M set as 100%)", "setting": "[2]", "result": "none of the mutants exhibited any significant defect in cleaving the LPXTG (SEQ ID NO. 5) motif"},
      {"measurement": "transpeptidation in vitro (ligation of ^NSpaA and ^CSpaA, SDS-PAGE)", "setting": "[5]", "result": "defective in transpeptidation in vitro, as no isopeptide linked SpaA-SpaA product was produced even after 48 hours"}
    ]},
    {"protein": "Corynebacterium diphtheriae pilus-specific sortase SrtA, soluble catalytic domain fragment (residues 37-257), SrtA^WT (enzyme, The His6-SUMO or His/TEV tag was removed after purification; also called CdSrtA^WT; Cd-SrtA) NNARQARVAQSYENSYEVDSPAVRDSVLEAARQYNTSVVGFPILDPWLNRASKNSGPYLDYLQQLNPQRAERPVIASISIPTIDAHLPIYHGTDTATLEHGLGHLYGSALPVGGTGTHPVITGHSGLANATLFDNLEDVKEHDPIYITVQGETLKYEVDAINVVLPEDTKLLAPDPNKDQITLITCTPYAVNSHRLLVRAHRVDLDPNDPNLTQTGTKIWQ", "values": [
      {"measurement": "Vmax of hydrolysis kinetics (HPLC-based assay, SpaApep cleavage)", "setting": "[2]", "result": 5.5, "unit": "µM/h"},
      {"measurement": "binding result", "setting": "[6]", "result": "binds"}
    ]},
    {"protein": "CdSrtA^3M (CdSrtA D81G/W83G/N85A triple mutant) (protein) NNARQARVAQSYENSYEVDSPAVRDSVLEAARQYNTSVVGFPILGPGLARASKNSGPYLDYLQQLNPQRAERPVIASISIPTIDAHLPIYHGTDTATLEHGLGHLYGSALPVGGTGTHPVITGHSGLANATLFDNLEDVKEHDPIYITVQGETLKYEVDAINVVLPEDTKLLAPDPNKDQITLITCTPYAVNSHRLLVRAHRVDLDPNDPNLTQTGTKIWQ", "values": [
      {"measurement": "Km (M) × 10^-4", "setting": "[3]", "result": "8e-05", "unit": "M"},
      {"measurement": "Vmax (s^-1) × 10^-9", "setting": "[3]", "result": "1.4e-09", "unit": "s⁻¹"},
      {"measurement": "kcat (s^-1) × 10^-5", "setting": "[3]", "result": "5.7e-05", "unit": "s⁻¹"},
      {"measurement": "kcat/kM", "setting": "[3]", "result": 0.7, "unit": "M⁻¹ s⁻¹"},
      {"measurement": "ligation of the pilin motif peptide to ^CSpaA or to the sorting signal peptide (MALDI-MS)", "setting": "[7]", "result": "In both instances, no detectable product was observed"},
      {"measurement": "hydrolysis of LPATG peptide (HPLC)", "setting": "[4]", "result": "CdSrtA^3M is unable to process any significant amount of peptide"},
      {"measurement": "cross-linked ^NSpaAx^CSpaA product after 24 hour incubation, relative to CdSrtA^2M (gel densitometry)", "setting": "[8]", "result": "35% more product than CdSrtA^2M"},
      {"measurement": "cross-linked ^NSpaAx^CSpaA product after 24 hour incubation, relative to CdSrtA^WT (gel densitometry)", "setting": "[8]", "result": "10.6-fold more cross-linked ^NSpaAx^CSpaA product than CdSrtA^WT"},
      {"measurement": "HPLC-based sorting signal cleavage assay", "setting": "[2]", "result": "the CdSrtA^3M triple mutant exhibits the highest level of activity in a HPLC-based sorting signal cleavage assay"},
      {"measurement": "labeling of ^NSpaA with the sorting signal peptide (MALDI-MS)", "setting": "[5]", "result": ">95% of ^NSpaA is labeled with the peptide"}
    ]},
    {"protein": "SrtA^2M (residues 37-257 of CdSrtA with D81G/W83G lid mutations) (protein) NNARQARVAQSYENSYEVDSPAVRDSVLEAARQYNTSVVGFPILGPGLNRASKNSGPYLDYLQQLNPQRAERPVIASISIPTIDAHLPIYHGTDTATLEHGLGHLYGSALPVGGTGTHPVITGHSGLANATLFDNLEDVKEHDPIYITVQGETLKYEVDAINVVLPEDTKLLAPDPNKDQITLITCTPYAVNSHRLLVRAHRVDLDPNDPNLTQTGTKIWQ", "values": [
      {"measurement": "Vmax of hydrolysis kinetics (HPLC-based assay, SpaApep cleavage)", "setting": "[2]", "result": 6.3, "unit": "µM/h"}
    ]},
    {"protein": "SrtA^2M Y225A variant (protein) NNARQARVAQSYENSYEVDSPAVRDSVLEAARQYNTSVVGFPILGPGLNRASKNSGPYLDYLQQLNPQRAERPVIASISIPTIDAHLPIYHGTDTATLEHGLGHLYGSALPVGGTGTHPVITGHSGLANATLFDNLEDVKEHDPIYITVQGETLKYEVDAINVVLPEDTKLLAPDPNKDQITLITCTPAAVNSHRLLVRAHRVDLDPNDPNLTQTGTKIWQ", "values": [
      {"measurement": "hydrolysis of SpaApep (HPLC-based assay, SrtA^2M set as 100%)", "setting": "[2]", "result": "none of the mutants exhibited any significant defect in cleaving the LPXTG (SEQ ID NO. 5) motif"},
      {"measurement": "transpeptidation in vitro (ligation of ^NSpaA and ^CSpaA, SDS-PAGE)", "setting": "[5]", "result": "had impaired transpeptidation activity as well, but to a lesser extent than the S229A and N228A mutants"}
    ]},
    {"protein": "SrtA^2M N165A variant (protein) NNARQARVAQSYENSYEVDSPAVRDSVLEAARQYNTSVVGFPILGPGLNRASKNSGPYLDYLQQLNPQRAERPVIASISIPTIDAHLPIYHGTDTATLEHGLGHLYGSALPVGGTGTHPVITGHSGLAAATLFDNLEDVKEHDPIYITVQGETLKYEVDAINVVLPEDTKLLAPDPNKDQITLITCTPYAVNSHRLLVRAHRVDLDPNDPNLTQTGTKIWQ", "values": [
      {"measurement": "hydrolysis of SpaApep (HPLC-based assay, SrtA^2M set as 100%)", "setting": "[2]", "result": "none of the mutants exhibited any significant defect in cleaving the LPXTG (SEQ ID NO. 5) motif"},
      {"measurement": "transpeptidation in vitro (ligation of ^NSpaA and ^CSpaA, SDS-PAGE)", "setting": "[5]", "result": "this mutant retained near wild-type activity"}
    ]}
  ]
}
